Paper PMC7291361 (ACS infectious diseases, 2020)

Molecular target: H4 NB-10 HA full length soluble ectodomain (FLsE) (Influenza A virus A/American black …, UniProt M1UPL4, strain)
Assay: ELISA

B1: K03.12 IgG (antibody, V domains shown)
VH: QVQLVQSGAEVKKPGASVKVSCKTSGYTFTAYYLHWVRQAPGQGFEWMAWINPNTGDTNYAQKFQGRVTLSRDTSITTAYMELTRLRSDDTAVYYCAKDLTLMYVFDSGWARGAHDYYGMDVWGQGTTVAVSG
VL: PSALTQPASVSGSPGQSVTISCTGTNSDVGTFDLVSWYQQYPGKAPKLIIYEGSRRPSGVSDRFSGSKSGNTASLTISGLQAEDEADYYCSSYAGSVVFGGGTKLTVL
B1: no binding (tested: 1 μM IgG).
